Experimental data published in a protein production outcome set (Wang et al. 2014).

Assay: label from the status in PepcDB records
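Also: failed if final PepcDB status was selected cloned or expressed and not failed if soluble or beyond.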

Sequence	protein production
MKKLYRYVLFTFLLIFSQLSFANWDLTDNQPIEISAQATNIEADIRALPEQHFFSNNDYAQVKRLLSTTISQQKEHATALKEALATYREDSSNQNWIAVETVHQSLTSLNLSKEQLLKLTNSTTREQLTGFGPYGVTQFYSELSITKLNIEYYLHYQIRSFKNLLKDLTISPVPIISVIFKVLCVFFIFSWWMKNSSRLINDFKTSKLENGTKPNFFIRSIWYLTRAHKAIAWLLLITVTLRIVSTLPSLQHLIFLEIFTWWILGGSIAVSFILEFIYRNSKHNKKEIIALRLSTVRHYVWGIIVAGVILQISSRTLGQGTIYAWINSLMYLFFVLLTIHTLRKWKPTVFERIERVDPLPLSIQWAKRNQKTFLISIAATACGAAWLSWRALQHSIIALLSQYAAFSHALAYLFRIEVAKQTEVAREQSNLVRVKGTAAFDYIAPGSEDSELIEDYAKDEMSALSRYLLTESPAVCVLSGERGVGTTTLLNRILNKVKNATPIYINCPYDGYSALLPELAKQLGLDEESSERDILQYLRNSDTCYLLAFDSAQRLVKPKVNGLADLMKLTNLLRRARKSHRVVLAIEKSCWRFIDRARGERLLFDLVTFMPKWDEKQIGQLLESRITLSEGQPTISFDGLVLPRQWDEENLTEEERARNGFYRILWDYSDGNPTVALRFFRLSLHRDKDTDAILVRLFRAPHSDDLETMPKPMLAVLRSIVQLEVASPADVCDCSRLSMAEVISTLRYFQSRGYIEWSDDKARISDHWFRHITNVLHRQHLLVK	failed
MKKNYTYPFTAIVGQEEMKLALILNIINPAISGVLIRGEKGTAKSTAVRALADILPEIEVIAGIPFNLAPDEDDETIRECFTVTGHAMPDPDNLEVTMHKVQVVELPVGATEDRVVGTLDLEHALKTGEKRIEPGLLAAAHRGILYVDEVNLLDDHVVDVLLDSAAMGVNTIEREGVSFSHPARFTLVGTMNPEEGELRPQLLDRFGLCVHVGGIADPQDRVTVMERRFAFEQDQERFCSEWQGESSKLAERIVAARELYPSVTISREHLLGIAKSCLKVGVDGHRGDIIIMKTAKTIAAWEGRHCVGSDDIDRAVALALPHRIRRQPLQDMVMDVGSLLGSKCTTN	failed
MKKQIALVALLFLGMSCFNASAQFKKFNLGKAIQAGKDAAQAISLSDADIAAMSKEYMEWMDKHNPLTKPDSEYGKRLERLTGNIKEVDGMKVNFGVYEVVDVNAFACGDGSVRICAGLMDVMTDEEVMAVIGHEIGHVIHTDSKDAMKNAYFRSAVKNAAGAASSQVAKLTDSELGAMAEALAGAQYSQKQEYEADAYGVEFCVKNNIDPYGMYKSLNKLLELSNGAPASSYMQRMFSSHPDTAKRVARAKELADKYKQLEHHHHHH	not failed
MKKQRNLRSMAAQAVEQVVEQGQSLSNILPPLQQKVSDKDKALLQELCFGVLRTLSQLDWLINKLMARPMTGKQRTVHYLIMVGLYQLLYTRIPPHAALAETVEGAIAIKRPQLKGLINGVLRQFQRQQEELLAEFNASDARYLHPSWLLKRLQKAYPEQWQSIVEANNQRPPMWLRINRTHHSRDSWLALLDEAGMKGFPHADYPDAVRLETPAPVHALPGFEDGWVTVQDASAQGCMTWLAPQNGEHILDLCAAPGGKTTHILEVAPEAQVVAVDIDEQRLSRVYDNLKRLGMKATVKQGDGRYPSQWCGEQQFDRILLDAPCSATGVIRRHPDIKWLRRDRDIPELAQLQSEILDAIWPHLKTGGTLVYATCSVLPEENSLQIKAFLQRTADAELCETGTPEQPGKQNLPGAEEGDGFFYAKLIKK	failed
MKKRIIFFLILLVSFRIFADYKSEYDNLLSARNIKGIAALLPKWEKAEPKNPELYIAYFNYYLLKGQRSTQSLDTYKKDNTNSLALVDQKTNKIAGYLNNNIWYEKEDVDKALSYLEKGLKFGKNRLDMYFGRIHILGEIGEYEKQSQKIIEVLKLGKEINHKWLWSMNEVIPSSESEHFFLISINEYYKNWLQKSSPQTLNAAEKTGEAQLKLYPKNIEVHNYLSLAYIGQGKFKEALNVLLKADKLANEDYVIIFNMGRCYEALKQYDKAKECYLRMKKNPNKQVQDMADQKLSELKKLTK	failed
MKKRIKELTDLLNRYRYDYYTKDAPSVSDSDYDKLYRELVTLEQSYPEYVLQDSPTQQVGGTILKGFEKYRHQYPLFSLQDAFSREELDAFDKRVKAEFPNATYLAELKIDGLSISLSYENGFLQVGATRGDGNIGENITENIKKIKDIPYQLSEPLTITVRGEAYMSRQSFKAINEARQENGETEFANPRNAAAGTLRQLDTSVVAKRQLATFLYQEASPTARNQQNEVLAELADLGFSVNPYYQLTSSMDEIWDFIKTIEAKRDQLAYDIDGVVIKVNSLAMQEELGFTVKAPRWAIAYKFPAEEKEAEILSVDWTVGRTGVVTPTANLTPVQLAGTTVSRATLHNVDYIAEKDIRIGDTVIVYKAGDIIPAVLNVVMSKRNQQEVMLIPKLCPSCGSELVHFEDEVALRCINPLCPSLIQRSLEHFASRDAMNITGLGPAIVEKLFLAGFVHDVADIYQLTKEDFMQLDGIKEKSADKLLAAIEASKSNSAEKLLFGLGIRHIGSKVSRLILEVYGDISALLTAKEEEIARIDGLGSTIAQSLTQYFEQKTAAILVDELKTAGVNMHYSGQKVNSDAALFGLTVVLTGKLNQLNRNEAKDKLEALGAKVTGSVSKKTDLVIAGSDAGSKLEKAKSLGIRIEDEDWLRQL	failed
MKKRNISVPSKAYLALIIATLCWGGNTVAGKLAVGHISPMAFTFLRWVLAVAIIFAISVPQLIKDWPVVKQRLPYFFVLGSVGYTAFNVFLYTALQHTSAINAAVIQAGIPMVIFVLNFVLFRTRVLFGQIAGFCLTISGVALLASHGDPLSLLQLEMNVGDAVMLLAVLVYAIYTVILRWKPAVDWRTLMAIPAFFALLTSVPLVFFEMSRESLIWPDQKGWMLVVYAGIFASLIAQILYIKGVEQIGANRAGLFINLVPVFGTLLSVFVLSETLHTYQIAALFMALAGIAVAERKKSPAS	failed
MKKSKHLKRPYLKRSHLKHSDKASSFKGLLKKEDNVISLENFKPKESEDLLENFSNKKDMQELLGLLNQFILQSYKVEKEFKDYKALYEWVIEILPQAIWVVNENGSFFYKNSLANQSHEVFNKAKLENFNTEIEHENKSYLVQQNSIQGKQIITATDISAQKRQERLASMGKISAHLAHEIRNPVGSISLLASVLLKHANEKTKPIVVELQKALWRVERIIKATLLFSKGIQANRTKQSLKTLESDLKEALNCYTYSKDIDFLFNFSDEEGFFDFDLMGIVLQNFLYNAIDAIEALEESEQGQVKIEAFIQNEFIVFTIIDNGKEVENKSALFEPFETTKLKGNGLGLALSLQVVKAHEGSIALLENQEKTFEIKILNAS	failed
MKKTLILILCLFLCTVSFARKRVKVACVGNSITYGIGVSDPDKESYPARLQQMLGEGYTVERFGKPGATLLNKGHRPFMQQKEFKDALAFAGDVVVIHLGVNDTDPRDWPNYRDFFIADYRALIDSFRVANPECRILIARLTPIADRHPRFESGTRDWHDEIQLAIETIAKYAQVQLIDFHAPLYPYPFMLPDAVHPDKEGAAVLAKTVYEGITGDFGGLQMPEIYTDNMVLQHGRLLTIQGKADAGEKVTVSIDRQKLQAVTGADGKWAVDVRPLKAGGPYTLTVSTEKRKLVYENVLAGEVWLCSGQSNMEFYLNWSATAAQDVPQAANSNIRFYDMKARWRTDAVEWDASVLDSLNHLQYYKDTRWTVCSPETAGNFSAVAYYFGKKLQDSLQVPVGLICNAIGGSPTEAWIDRSTLEYRFPAILRNWMQNDFIQDWVRGRAALNVKQSSNKLQRHPYEPCYLYESGIRPLEQFPVKGFIWYQGESNAHNREAHEKLFGLLVESWRKNWGDAELPFYFVQLSSIDRPSWTWFRDSQRRLMAEIPHTGMAVSSDRGDSLDVHPKQKREVGERLAAWALNKTYGYKNVIPSGPLYKSVVFSGGAAYISFDYAEELSTSDGKSLRTFEVAGDDGLFYPAQAVVENGKIKVWSDKVKEPETVRYGWQPFTRANLVNGAGLPASTFRAE	failed
MKKTPIVFILFLLNFICLGQADTTMLLSDKAVQIEGTDAVNDLYNFKFEKAEGYFLYLKSQHPNHPMPYFLMALSNWWKMMPYIDNNDYTNAYEKEFLYYIDQTIEKGEEQFKADDQNVEAAFFLCAAHGFKGRYFSENKGYVKAAFAGKSALHYLTYTKGKGDLNPEFLFGESIFNYYAEWIKEEYPLLKPLVGLFPKGDKAVGLAQLKECATNAFYTRIEAQYFLLRIYTNEENNSRAAYPYAKYLSENFPDNPYFQRVYARLSFELGYYAQCEKICYDINYKVNIEMPGYEVNTGRYAAYFLGRILYEKSDLEKSKFYLLKTAAFAESGNMNKMGYSLSAYYYLGMIEVKSQNYSEAEKFFLKVIDLGEDKQDNSAVYNYSYASYQLASVYEKQQNTKRAESFYKDAIKRVKKLDEKSYASTIKEITANSEAGLERLKQPKK	failed
